The target in this test is T1, human amylin receptor (human, UniProt P30988 25-474; O60896 24-148, limits assumed).
T1 construct: whole, on cells; Calcitonin receptor plus RAMP-3 gives the amylin 3(a) receptor; membranes of Amylin 3(a)/CRE-luc cells were used; also called hAmylin-R; hAmylinR
T1 sequence (looked up) 1: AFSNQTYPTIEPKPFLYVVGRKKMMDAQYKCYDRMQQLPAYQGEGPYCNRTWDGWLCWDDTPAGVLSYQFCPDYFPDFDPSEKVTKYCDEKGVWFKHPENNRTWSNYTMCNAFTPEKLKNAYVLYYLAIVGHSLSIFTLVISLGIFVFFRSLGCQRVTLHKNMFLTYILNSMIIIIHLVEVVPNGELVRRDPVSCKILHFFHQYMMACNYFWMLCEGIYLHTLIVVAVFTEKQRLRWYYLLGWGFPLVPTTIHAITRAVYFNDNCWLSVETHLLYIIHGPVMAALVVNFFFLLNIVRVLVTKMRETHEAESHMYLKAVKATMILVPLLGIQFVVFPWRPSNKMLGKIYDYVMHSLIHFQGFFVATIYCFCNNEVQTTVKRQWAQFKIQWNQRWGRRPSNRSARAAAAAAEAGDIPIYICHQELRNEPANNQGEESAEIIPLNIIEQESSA
T1 sequence (looked up) 2: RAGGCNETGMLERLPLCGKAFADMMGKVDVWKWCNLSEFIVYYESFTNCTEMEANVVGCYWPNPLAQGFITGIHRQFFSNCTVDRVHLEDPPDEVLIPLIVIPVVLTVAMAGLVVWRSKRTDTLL
The experiment in a line: SPA competition binding, displacement of 125I-rat amylin from membranes with human amylin 3(a) receptor (Assay V). The gist of the method:
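Cell membranes were prepared by homogenisation in Na-HEPES/EDTA buffer, pH 7.4, and stored at −80° C. They were then coupled to SPA beads at 35 ng/μL final and exposed to compounds in assay buffer containing CaCl2, MgCl₂, OA and Tween20. After 120 min at 25° C, plates were counted and IC₅₀ derived.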

The text below walks through data of patent publication US20140087995A1 (published 2014).

Broadly, the IC50 is the concentration needed to halve the response being measured.

Numbered stars: 1 amine (or outer) side, 2 acyl side, 3 side chain; on linkers, the order of the positions; unused ones are H or OH. Bridge positions count the residues as written; N and C are the ends. Side chains are listed from the residue outwards. Ends that are not written are not given here. * marks the point of attachment. C20 diacid = O=C(O)CCCCCCCCCCCCCCCCCCC(=O)*; C18 diacid = O=C(O)CCCCCCCCCCCCCCCCC(=O)*; C16 diacid = O=C(O)CCCCCCCCCCCCCCC(=O)*; γGlu = O=C(O)[C@H](CCC(=O)[*:2])N[*:1]

B1: N^ε1-[(4S)-4-carboxy-4-(15-carboxypentadecanoylamino)butanoyl]-[Arg17,Pro21,Pro27,His34]-h-amylin (peptide)
peptide: K([γGlu-C16 diacid])CNTATCATQRLANFLRHSSPNFGAIPSSTNVGHNTY-NH2
modifications: disulfide 2-7; N-terminus assumed
SMILES: CC[C@H](C)[C@H](NC(=O)[C@H](C)NC(=O)CNC(=O)[C@H](Cc1ccccc1)NC(=O)[C@H](CC(N)=O)NC(=O)[C@@H]1CCCN1C(=O)[C@H](CO)NC(=O)[C@H](CO)NC(=O)[C@H](Cc1c[nH]cn1)NC(=O)[C@H](CCCNC(=N)N)NC(=O)[C@H](CC(C)C)NC(=O)[C@H](Cc1ccccc1)NC(=O)[C@H](CC(N)=O)NC(=O)[C@H](C)NC(=O)[C@H](CC(C)C)NC(=O)[C@H](CCCNC(=N)N)NC(=O)[C@H](CCC(N)=O)NC(=O)[C@@H](NC(=O)[C@H](C)NC(=O)[C@@H]1CSSC[C@H](NC(=O)[C@@H](N)CCCCNC(=O)CC[C@H](NC(=O)CCCCCCCCCCCCCCC(=O)O)C(=O)O)C(=O)N[C@@H](CC(N)=O)C(=O)N[C@@H]([C@@H](C)O)C(=O)N[C@@H](C)C(=O)N[C@@H]([C@@H](C)O)C(=O)N1)[C@@H](C)O)C(=O)N1CCC[C@H]1C(=O)N[C@@H](CO)C(=O)N[C@@H](CO)C(=O)N[C@H](C(=O)N[C@@H](CC(N)=O)C(=O)N[C@H](C(=O)NCC(=O)N[C@@H](Cc1c[nH]cn1)C(=O)N[C@@H](CC(N)=O)C(=O)N[C@H](C(=O)N[C@@H](Cc1ccc(O)cc1)C(N)=O)[C@@H](C)O)C(C)C)[C@@H](C)O
notes: also called 17R, 21P, 27P, 34H
Regarding B1, the IC50 is 0.58 nM.

B2: N^ε1-[(4S)-4-carboxy-4-(19-carboxynonadecanoylamino)butanoyl]-[Arg14,Arg17,Pro21,Pro27,Pro34]-h-amylin (peptide)
peptide: K([γGlu-C20 diacid])CNTATCATQRLARFLRHSSPNFGAIPSSTNVGPNTY-NH2
modifications: disulfide 2-7; N-terminus assumed
SMILES: CC[C@H](C)[C@H](NC(=O)[C@H](C)NC(=O)CNC(=O)[C@H](Cc1ccccc1)NC(=O)[C@H](CC(N)=O)NC(=O)[C@@H]1CCCN1C(=O)[C@H](CO)NC(=O)[C@H](CO)NC(=O)[C@H](Cc1c[nH]cn1)NC(=O)[C@H](CCCNC(=N)N)NC(=O)[C@H](CC(C)C)NC(=O)[C@H](Cc1ccccc1)NC(=O)[C@H](CCCNC(=N)N)NC(=O)[C@H](C)NC(=O)[C@H](CC(C)C)NC(=O)[C@H](CCCNC(=N)N)NC(=O)[C@H](CCC(N)=O)NC(=O)[C@@H](NC(=O)[C@H](C)NC(=O)[C@@H]1CSSC[C@H](NC(=O)[C@@H](N)CCCCNC(=O)CC[C@H](NC(=O)CCCCCCCCCCCCCCCCCCC(=O)O)C(=O)O)C(=O)N[C@@H](CC(N)=O)C(=O)N[C@@H]([C@@H](C)O)C(=O)N[C@@H](C)C(=O)N[C@@H]([C@@H](C)O)C(=O)N1)[C@@H](C)O)C(=O)N1CCC[C@H]1C(=O)N[C@@H](CO)C(=O)N[C@@H](CO)C(=O)N[C@H](C(=O)N[C@@H](CC(N)=O)C(=O)N[C@H](C(=O)NCC(=O)N1CCC[C@H]1C(=O)N[C@@H](CC(N)=O)C(=O)N[C@H](C(=O)N[C@@H](Cc1ccc(O)cc1)C(N)=O)[C@@H](C)O)C(C)C)[C@@H](C)O
notes: also called 14R, 17R, 21P, 27P, 34P
Consider B2, for which the IC50 worked out at 0.649 nM.

B3: N^ε1-[(4S)-4-carboxy-4-(17-carboxyheptadecanoylamino)butanoyl]-[Arg17,Pro21,Pro27,His34]-h-amylin (peptide)
peptide: K([γGlu-C18 diacid])CNTATCATQRLANFLRHSSPNFGAIPSSTNVGHNTY-NH2
modifications: disulfide 2-7; N-terminus assumed
SMILES: CC[C@H](C)[C@H](NC(=O)[C@H](C)NC(=O)CNC(=O)[C@H](Cc1ccccc1)NC(=O)[C@H](CC(N)=O)NC(=O)[C@@H]1CCCN1C(=O)[C@H](CO)NC(=O)[C@H](CO)NC(=O)[C@H](Cc1c[nH]cn1)NC(=O)[C@H](CCCNC(=N)N)NC(=O)[C@H](CC(C)C)NC(=O)[C@H](Cc1ccccc1)NC(=O)[C@H](CC(N)=O)NC(=O)[C@H](C)NC(=O)[C@H](CC(C)C)NC(=O)[C@H](CCCNC(=N)N)NC(=O)[C@H](CCC(N)=O)NC(=O)[C@@H](NC(=O)[C@H](C)NC(=O)[C@@H]1CSSC[C@H](NC(=O)[C@@H](N)CCCCNC(=O)CC[C@H](NC(=O)CCCCCCCCCCCCCCCCC(=O)O)C(=O)O)C(=O)N[C@@H](CC(N)=O)C(=O)N[C@@H]([C@@H](C)O)C(=O)N[C@@H](C)C(=O)N[C@@H]([C@@H](C)O)C(=O)N1)[C@@H](C)O)C(=O)N1CCC[C@H]1C(=O)N[C@@H](CO)C(=O)N[C@@H](CO)C(=O)N[C@H](C(=O)N[C@@H](CC(N)=O)C(=O)N[C@H](C(=O)NCC(=O)N[C@@H](Cc1c[nH]cn1)C(=O)N[C@@H](CC(N)=O)C(=O)N[C@H](C(=O)N[C@@H](Cc1ccc(O)cc1)C(N)=O)[C@@H](C)O)C(C)C)[C@@H](C)O
notes: as for B1
Consider B3, for which the IC50 was determined as 0.382 nM.

B4: N^ε1-[(4S)-4-carboxy-4-(19-carboxynonadecanoylamino)butanoyl]-[Ala14,Arg17,Pro21,Pro27,His34]-h-amylin (peptide)
peptide: K([γGlu-C20 diacid])CNTATCATQRLAAFLRHSSPNFGAIPSSTNVGHNTY-NH2
modifications: disulfide 2-7; N-terminus assumed
SMILES: CC[C@H](C)[C@H](NC(=O)[C@H](C)NC(=O)CNC(=O)[C@H](Cc1ccccc1)NC(=O)[C@H](CC(N)=O)NC(=O)[C@@H]1CCCN1C(=O)[C@H](CO)NC(=O)[C@H](CO)NC(=O)[C@H](Cc1c[nH]cn1)NC(=O)[C@H](CCCNC(=N)N)NC(=O)[C@H](CC(C)C)NC(=O)[C@H](Cc1ccccc1)NC(=O)[C@H](C)NC(=O)[C@H](C)NC(=O)[C@H](CC(C)C)NC(=O)[C@H](CCCNC(=N)N)NC(=O)[C@H](CCC(N)=O)NC(=O)[C@@H](NC(=O)[C@H](C)NC(=O)[C@@H]1CSSC[C@H](NC(=O)[C@@H](N)CCCCNC(=O)CC[C@H](NC(=O)CCCCCCCCCCCCCCCCCCC(=O)O)C(=O)O)C(=O)N[C@@H](CC(N)=O)C(=O)N[C@@H]([C@@H](C)O)C(=O)N[C@@H](C)C(=O)N[C@@H]([C@@H](C)O)C(=O)N1)[C@@H](C)O)C(=O)N1CCC[C@H]1C(=O)N[C@@H](CO)C(=O)N[C@@H](CO)C(=O)N[C@H](C(=O)N[C@@H](CC(N)=O)C(=O)N[C@H](C(=O)NCC(=O)N[C@@H](Cc1c[nH]cn1)C(=O)N[C@@H](CC(N)=O)C(=O)N[C@H](C(=O)N[C@@H](Cc1ccc(O)cc1)C(N)=O)[C@@H](C)O)C(C)C)[C@@H](C)O
notes: also called 14A, 17R, 21P, 27P, 34H
On to B4, for which the 50% inhibitory concentration (IC50) is 0.176 nM.

B5: N^ε1-[(4S)-4-carboxy-4-(19-carboxynonadecanoylamino)butanoyl]-[Arg17,Pro21,Pro27,Arg34]-h-amylin (peptide)
peptide: K([γGlu-C20 diacid])CNTATCATQRLANFLRHSSPNFGAIPSSTNVGRNTY-NH2
modifications: disulfide 2-7; N-terminus assumed
SMILES: CC[C@H](C)[C@H](NC(=O)[C@H](C)NC(=O)CNC(=O)[C@H](Cc1ccccc1)NC(=O)[C@H](CC(N)=O)NC(=O)[C@@H]1CCCN1C(=O)[C@H](CO)NC(=O)[C@H](CO)NC(=O)[C@H](Cc1c[nH]cn1)NC(=O)[C@H](CCCNC(=N)N)NC(=O)[C@H](CC(C)C)NC(=O)[C@H](Cc1ccccc1)NC(=O)[C@H](CC(N)=O)NC(=O)[C@H](C)NC(=O)[C@H](CC(C)C)NC(=O)[C@H](CCCNC(=N)N)NC(=O)[C@H](CCC(N)=O)NC(=O)[C@@H](NC(=O)[C@H](C)NC(=O)[C@@H]1CSSC[C@H](NC(=O)[C@@H](N)CCCCNC(=O)CC[C@H](NC(=O)CCCCCCCCCCCCCCCCCCC(=O)O)C(=O)O)C(=O)N[C@@H](CC(N)=O)C(=O)N[C@@H]([C@@H](C)O)C(=O)N[C@@H](C)C(=O)N[C@@H]([C@@H](C)O)C(=O)N1)[C@@H](C)O)C(=O)N1CCC[C@H]1C(=O)N[C@@H](CO)C(=O)N[C@@H](CO)C(=O)N[C@H](C(=O)N[C@@H](CC(N)=O)C(=O)N[C@H](C(=O)NCC(=O)N[C@@H](CCCNC(=N)N)C(=O)N[C@@H](CC(N)=O)C(=O)N[C@H](C(=O)N[C@@H](Cc1ccc(O)cc1)C(N)=O)[C@@H](C)O)C(C)C)[C@@H](C)O
notes: also called 17R, 21P, 27P, 34R
On to B5, for which the IC50 came out at 0.79 nM.

B6: N^ε1-[(4S)-4-carboxy-4-(19-carboxynonadecanoylamino)butanoyl]-[Ala14,Arg17,Pro21,Pro27,Pro34]-h-amylin (peptide)
peptide: K([γGlu-C20 diacid])CNTATCATQRLAAFLRHSSPNFGAIPSSTNVGPNTY-NH2
modifications: disulfide 2-7; N-terminus assumed
SMILES: CC[C@H](C)[C@H](NC(=O)[C@H](C)NC(=O)CNC(=O)[C@H](Cc1ccccc1)NC(=O)[C@H](CC(N)=O)NC(=O)[C@@H]1CCCN1C(=O)[C@H](CO)NC(=O)[C@H](CO)NC(=O)[C@H](Cc1c[nH]cn1)NC(=O)[C@H](CCCNC(=N)N)NC(=O)[C@H](CC(C)C)NC(=O)[C@H](Cc1ccccc1)NC(=O)[C@H](C)NC(=O)[C@H](C)NC(=O)[C@H](CC(C)C)NC(=O)[C@H](CCCNC(=N)N)NC(=O)[C@H](CCC(N)=O)NC(=O)[C@@H](NC(=O)[C@H](C)NC(=O)[C@@H]1CSSC[C@H](NC(=O)[C@@H](N)CCCCNC(=O)CC[C@H](NC(=O)CCCCCCCCCCCCCCCCCCC(=O)O)C(=O)O)C(=O)N[C@@H](CC(N)=O)C(=O)N[C@@H]([C@@H](C)O)C(=O)N[C@@H](C)C(=O)N[C@@H]([C@@H](C)O)C(=O)N1)[C@@H](C)O)C(=O)N1CCC[C@H]1C(=O)N[C@@H](CO)C(=O)N[C@@H](CO)C(=O)N[C@H](C(=O)N[C@@H](CC(N)=O)C(=O)N[C@H](C(=O)NCC(=O)N1CCC[C@H]1C(=O)N[C@@H](CC(N)=O)C(=O)N[C@H](C(=O)N[C@@H](Cc1ccc(O)cc1)C(N)=O)[C@@H](C)O)C(C)C)[C@@H](C)O
notes: also called 14A, 17R, 21P, 27P, 34P
The molecule B6 came in with an IC50 of 0.148 nM.
